“Also recorded” adds a separate entry of the source.
T1: CXCR3 (Homo sapiens, UniProt P49682)
T1 sequence (P49682 1-368): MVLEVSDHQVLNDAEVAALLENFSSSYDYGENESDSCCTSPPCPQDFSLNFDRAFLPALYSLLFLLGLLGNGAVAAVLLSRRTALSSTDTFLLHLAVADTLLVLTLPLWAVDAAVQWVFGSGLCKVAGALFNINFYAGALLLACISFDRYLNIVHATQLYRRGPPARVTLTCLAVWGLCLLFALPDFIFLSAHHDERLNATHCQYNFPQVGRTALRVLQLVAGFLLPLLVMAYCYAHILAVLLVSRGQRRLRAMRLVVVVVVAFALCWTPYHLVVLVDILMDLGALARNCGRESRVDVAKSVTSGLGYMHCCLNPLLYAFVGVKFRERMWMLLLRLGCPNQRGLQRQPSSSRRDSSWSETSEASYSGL


Target: T1, CXCR3
Test: CRE/β-galactosidase reporter gene selectivity screen, CXCR3
Format: cell-based
Conditions: up to 2.5, forskolin 3 μM, agonist at 50-80% Emax
Experimental: Data are shown as means±S.E.M. (n=2-3).
HEK293T cells were maintained at 37° C. in a humidified 5% CO2, 95% air atmosphere in Dulbecco's modified Eagle's medium (DMEM) containing 2 mM L-glutamine, 50 IU/ml penicillin, 50 μg/ml streptomycin, and 10% (v/v) fetal calf serum. Jurkat cells were cultured in a humidified 5% CO2, 95% air atmosphere in a 1:1 mixture of Dulbecco's modified Eagle's medium (DMEM) and Ham's F12 medium containing 2 mM L-glutamine, 50 IU/ml penicillin, 50 μg/ml streptomycin, and 10% (v/v) fetal calf serum. […] [^125 I]-Labelling— Radiolabeling of Nanobodies with ^125I was performed using the Iodo-gen method (Pierce, Rockford, Ill.) according to the manufacturer's protocol. ^125I-labeled Nanobodies was separated from free iodine (>99%) using a Sephadex G-25 gel filtration column (Amersham Biosciences, Piscataway, N.J.). […] Competition Binding Assays— Membranes from HEK293T cells transiently expressing CXCR3 or CXCR4 were prepared 48 h after transfection as follows. Cells were washed and scraped from the cell culture dishes with ice-cold PBS containing 1 mm EDTA. The scraped cells were pelleted at 1500×g for 10 min at 4° C. […] The total protein was determined using a Bradford assay (Bio-Rad). […] Plates were counted by liquid scintillation. […] The accumulated inositol phosphates were isolated by anion exchange chromatography and counted by liquid scintillation. […]

| Molecule | effect on agonist-induced response at CXCR3 |
| --- | --- |
| 238D2: Nanobody (VHH) raised against human CXCR4, SEQ ID NO: 238 (protein, Nanobody, Nanobody constructs or fragments thereof) VHH: EVQLVESGGGLVQTGGSLRLSCAASGFTFSSYAMSWVRQAPGKGLEWVSGIKSSGDSTRYAGSVKGRFTISRDNAKNMLYLQMYSLKPEDTAVYYCAKSRVSRTGLYTYDNRGQGTQVTVSS | do not act as agonists or antagonists; also recorded: do not alter |
| 238D4: Nanobody (VHH) raised against human CXCR4, SEQ ID NO: 239 (protein, Nanobody, Nanobody constructs or fragments thereof) VHH: EVQLMESGGGLVQAGGSLRLSCAASGRTFNNYAMGWFRRAPGKEREFVAAITRSGVRSGVSAIYGDSVKDRFTISRDNAKNTLYLQMNSLKPEDTAVYTCAASAIGSGALRRFEYDYSGQGTQVTVSS | do not act as agonists or antagonists; also recorded: do not alter |

From US9212226B2, “Amino acid sequences directed against CXCR4 and other GPCRs and compounds comprising the same” (Ablynx N.V., priority 2008, dated 2015)
